Data on 1 molecule can be found in paper PMC8324488 (Cell Reports Medicine, 2021).

This assay concerns the target EBV glycoprotein gp350 (Epstein-Barr virus (strain B95-8) …, UniProt P03200-1). Description: flow cytometry on cells. For orientation: In flow cytometry, cells or beads pass a laser one at a time.

Chain of EBV glycoprotein gp350 (P03200 whole entry): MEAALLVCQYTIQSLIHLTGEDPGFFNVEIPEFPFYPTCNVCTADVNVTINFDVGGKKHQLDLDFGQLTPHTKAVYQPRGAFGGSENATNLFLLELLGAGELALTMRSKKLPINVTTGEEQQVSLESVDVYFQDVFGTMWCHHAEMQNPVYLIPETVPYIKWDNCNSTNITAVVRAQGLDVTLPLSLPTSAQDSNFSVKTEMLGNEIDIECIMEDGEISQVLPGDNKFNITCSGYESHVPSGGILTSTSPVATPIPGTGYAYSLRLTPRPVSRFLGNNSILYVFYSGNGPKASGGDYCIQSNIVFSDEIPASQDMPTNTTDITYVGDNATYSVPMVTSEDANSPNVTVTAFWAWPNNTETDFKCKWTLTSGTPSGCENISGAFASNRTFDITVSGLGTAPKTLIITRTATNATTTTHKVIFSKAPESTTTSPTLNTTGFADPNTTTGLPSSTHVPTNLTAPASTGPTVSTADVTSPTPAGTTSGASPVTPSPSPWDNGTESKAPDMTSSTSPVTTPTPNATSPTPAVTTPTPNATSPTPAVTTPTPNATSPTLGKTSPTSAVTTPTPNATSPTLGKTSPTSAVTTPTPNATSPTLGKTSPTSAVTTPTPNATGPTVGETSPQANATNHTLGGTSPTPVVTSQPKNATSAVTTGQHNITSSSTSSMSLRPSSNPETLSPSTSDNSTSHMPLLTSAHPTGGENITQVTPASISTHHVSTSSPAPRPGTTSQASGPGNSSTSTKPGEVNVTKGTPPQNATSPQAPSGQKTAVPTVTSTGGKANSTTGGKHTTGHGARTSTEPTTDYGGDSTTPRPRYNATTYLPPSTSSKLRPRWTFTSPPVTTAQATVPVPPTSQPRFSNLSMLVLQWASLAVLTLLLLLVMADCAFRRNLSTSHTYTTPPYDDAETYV

B1: 72A1, original hybridoma antibody (antibody, V domains shown)
VH: EVQLQQSGPELVKPGTSMKISCKASGSSFTDYTMNWMKQSHGKNLEWIGLINPYNGGTRYNQKFKGKATLTLDKSSSTAYMEVLSLTSEDSAVYYCAGGLRRVNWFAYWGQGTLVSVSA
VL: QAVLTQESALTTSPGETVTLTCRSSTGAVTTSNYANWVQEKPDHLFTGLIGGTNNRVPGVPARFSGSLIGDKAALTITGAQTEDEAIYFCVLWHSNHWVFGGGTKLTVL
Turning to B1, the binding result is reported as “binds”.
